{"source": "paper PMC9342896", "molecular_target": "aryl hydrocarbon nuclear receptor translocator 2 (ARNT2), in T-REx293 lysate (human (endogenous in T-REx293)) (UniProt Q9HBZ2)", "sequence (Q9HBZ2 whole entry)": "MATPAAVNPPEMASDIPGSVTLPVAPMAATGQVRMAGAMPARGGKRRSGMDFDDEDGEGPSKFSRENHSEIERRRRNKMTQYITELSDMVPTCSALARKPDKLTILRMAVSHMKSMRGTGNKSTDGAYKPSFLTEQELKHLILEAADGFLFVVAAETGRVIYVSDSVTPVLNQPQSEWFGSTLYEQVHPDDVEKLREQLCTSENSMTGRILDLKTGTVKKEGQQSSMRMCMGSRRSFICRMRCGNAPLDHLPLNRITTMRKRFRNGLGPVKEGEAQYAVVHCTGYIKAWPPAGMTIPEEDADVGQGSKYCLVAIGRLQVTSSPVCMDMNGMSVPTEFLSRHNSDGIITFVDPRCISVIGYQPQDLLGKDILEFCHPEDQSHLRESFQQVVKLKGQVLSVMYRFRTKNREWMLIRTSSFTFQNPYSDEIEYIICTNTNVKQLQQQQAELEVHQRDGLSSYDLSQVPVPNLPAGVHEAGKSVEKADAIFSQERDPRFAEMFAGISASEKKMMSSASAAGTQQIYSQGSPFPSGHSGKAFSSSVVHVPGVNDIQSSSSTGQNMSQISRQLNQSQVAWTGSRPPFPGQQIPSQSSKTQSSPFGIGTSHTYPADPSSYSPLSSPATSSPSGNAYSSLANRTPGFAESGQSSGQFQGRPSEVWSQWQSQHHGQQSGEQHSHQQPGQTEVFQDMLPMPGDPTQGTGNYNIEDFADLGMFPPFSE"}
{"substance": "SIM2s-2xHA-3xFLAG W306R variant (natural protein)", "values": [{"measurement": "6xCME luciferase reporter gene activity compared with WT SIM2s", "result": 50, "unit": "% reduction"}]}
